From article PMC10864275, “Binding kinetics drive G protein subtype selectivity at the β1-adrenergic receptor” (Nature Communications, 2024)
Positions count from the first letter of the chain named. Names and notes keep the numbering of the source. Values joined by “and” are separate entries in the source; they are usually repeats but may differ in a detail not shown here. Equal entries are not always repeated. One block for each binder: values may come before it.

Assays:
Conditions in all cases: both partners purified
[1] = biological target: T1, avi-β1AR-E (turkey β1-adrenergic receptor, β1AR-E construct with N-terminal biotinylated avi-tag) (turkey, UniProt P07700 1-367, Δ3-32 | Δ244-271 | C358A^8.59 | C116L^3.27 | R68S^1.59 | F327A^7.37 | …, biotin on the avi-tag); assay: BLI; biotinylated avi-β1AR in LMNG on streptavidin biosensors, mini-G in solution; 500 μM isoprenaline; 20 mM TrisHCl pH 8.0, 150 mM NaCl, 15 mM MgCl2, 0.02% LMNG, 0.1% BSA; 25 °C; single point measurements, monophasic 1:1 local fit, n = 3
T1 construct: turkey β1-adrenergic receptor; N-terminus truncated (Δ3-32), C-terminus truncated (Δ368-483), IL3 truncated (Δ244-271); as β1AR-W (β1AR-MetΔ5) but with E130 as in the wild type; source: Sf9 (baculovirus), purified in LMNG (NiNTA, SEC), biotinylated with GST-BirA, repurified by SEC; not shown: avi-tag, N-terminal, kept

[2] = biological target: T2, avi-β1AR-E (turkey β1-adrenergic receptor, minimally thermostabilised construct with E130 restored, … (turkey, UniProt P07700 1-367, Δ3-32 | Δ244-271 | C358A^8.59 | C116L^3.27 | R68S^1.59 | F327A^7.37 | …, biotin on the avi-tag)); assay: BLI; biotinylated avi-tagged receptor in LMNG immobilised on streptavidin biosensors; 500 μM isoprenaline; mini-G in solution at a single concentration (0.125-4 μM); 20 mM TrisHCl pH 8.0, 150 mM NaCl, 15 mM MgCl2, 0.02% LMNG, 0.1% BSA; 25 °C; 1:1 monophasic local partial fit; one of n = 3 tips
T2 construct: turkey β1-adrenergic receptor; N-terminus truncated (Δ3-32), C-terminus truncated (Δ368-483), IL3 truncated (Δ244-271); as β1AR-W (β1AR-MetΔ5) but with E130W reverted to E130; source: Sf9 (baculovirus), purified in LMNG (NiNTA, SEC), biotinylated with GST-BirA and repurified by SEC; not shown: avi-tag, N-terminal, kept

[3] = biological target: T3, avi-β1AR-W (turkey β1-adrenergic receptor β1AR-MetΔ5, thermostabilised with E130W, N-terminal biotinylated … (turkey, UniProt P07700 1-367, Δ3-32 | Δ244-271 | C358A^8.59 | C116L^3.27 | R68S^1.59 | E130W^3.41 | …, biotin on the avi-tag)); assay: as above
T3 construct: turkey β1-adrenergic receptor; N-terminus truncated (Δ3-32), C-terminus truncated (Δ368-483), IL3 truncated (Δ244-271); source: Sf9 (baculovirus), purified in LMNG (NiNTA, SEC), biotinylated with GST-BirA and repurified by SEC; not shown: avi-tag, N-terminal, kept
T3 sequence (P07700 other isoform, or with tags, fused parts or gaps with the stated changes): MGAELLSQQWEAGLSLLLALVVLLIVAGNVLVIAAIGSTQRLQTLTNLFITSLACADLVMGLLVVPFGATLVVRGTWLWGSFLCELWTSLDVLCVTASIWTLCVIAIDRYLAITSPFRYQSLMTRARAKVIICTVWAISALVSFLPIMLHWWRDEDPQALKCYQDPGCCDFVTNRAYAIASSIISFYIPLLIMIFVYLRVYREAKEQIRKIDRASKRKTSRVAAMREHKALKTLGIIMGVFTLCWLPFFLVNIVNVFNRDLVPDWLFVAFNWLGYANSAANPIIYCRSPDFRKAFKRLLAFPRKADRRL

T1 sequence (P07700 other isoform, or with tags, fused parts or gaps with the stated changes): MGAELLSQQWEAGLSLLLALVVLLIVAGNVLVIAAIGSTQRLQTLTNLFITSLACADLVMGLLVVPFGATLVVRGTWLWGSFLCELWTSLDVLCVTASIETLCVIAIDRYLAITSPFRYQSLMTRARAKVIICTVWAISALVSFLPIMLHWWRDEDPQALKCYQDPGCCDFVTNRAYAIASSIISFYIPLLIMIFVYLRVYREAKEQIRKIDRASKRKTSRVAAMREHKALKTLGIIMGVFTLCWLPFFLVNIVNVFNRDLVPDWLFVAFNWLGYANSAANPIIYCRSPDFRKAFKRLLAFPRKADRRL

Kd [1]: 1090 nM | fold reduction of kon against mini-Gs [1]: 40 fold
B1: mini-Gs/i R43 with C96A (domain or fragment)
chain: IEKQLQKDKQVYRATHRLLLLGADNSGKSTIVKQMRIYHTSGIFETKFQVDKVNFHMFDVGGQRDERRKWIQAFNDVTAIIFVVDSSDYNRLQEALNDFKSIWNNRWLRTISVILFLNKQDLLAEKVLAGKSKIEDYFPEFARYTTPEDATPEPGEDPRVTRAKYFIRDEFLRISTASGDGRHYCYPHFTCAVDTENARRIFNDVTDIIIKMNLRDCGLF

Kd [2]: 1070 nM and 1180 nM and 1030 nM | koff [2]: 0.00392 s⁻¹ and 0.00399 s⁻¹ (2×) | kon [2]: 3670 M⁻¹ s⁻¹ and 3370 M⁻¹ s⁻¹ and 3860 M⁻¹ s⁻¹ | Kd [3]: 3050 nM and 2400 nM and 2150 nM | koff [3]: 0.0063 s⁻¹ and 0.00605 s⁻¹ and 0.00634 s⁻¹ | kon [3]: 2070 M⁻¹ s⁻¹ and 2520 M⁻¹ s⁻¹ and 2950 M⁻¹ s⁻¹
B2: mini-Gs/i R43 C96A (chimera of mini-Gs with the receptor-interacting residues of the α5 helix replaced by Gi1 residues) (domain or fragment)
chain: B1 chain with Y38L

Kd [1]: 240 nM
B3: mini-Gs/q R70 (domain or fragment)
chain: B1 chain with A73C, V205C, T206K, I210L, K211Q, D216E, C217Y, G218N, F220V

Kd [2]: 241 nM and 242 nM and 244 nM | koff [2]: 0.00344 s⁻¹ (2×) and 0.0034 s⁻¹ | kon [2]: 14300 M⁻¹ s⁻¹ and 14200 M⁻¹ s⁻¹ and 14000 M⁻¹ s⁻¹ | Kd [3]: 529 nM and 541 nM and 533 nM | koff [3]: 0.00658 s⁻¹ and 0.00672 s⁻¹ and 0.00679 s⁻¹ | kon [3]: 12400 M⁻¹ s⁻¹ (2×) and 12800 M⁻¹ s⁻¹
B4: mini-Gs/q R70 (chimera of mini-Gs with the receptor-interacting residues of the α5 helix replaced by Gq residues) (domain or fragment)
chain: GIEKQLQKDKQVYRATHRLLLLGADNSGKSTIVKQMRILHGGSGGSGGTSGIFETKFQVDKVNFHMFDVGGQRDERRKWIQCFNDVTAIIFVVDSSDYNRLQEALNDFKSIWNNRWLRTISVILFLNKQDLLAEKVLAGKSKIEDYFPEFARYTTPEDATPEPGEDPRVTRAKYFIRDEFLRISTASGDGRHYCYPHFTCAVDTENARRIFNDCKDIILQMNLREYNLV
